Data reported in US20060251655A1.

B1: T1135stop (C-terminal deletion variant of ADAMTS-13, FLAG appended) (protein)
chain: PSHFQQSCLQALEPQAVSSYLSPGAPLKGRPPSPGFQRQRQRQRRAAGGILHLELLVAVGPDVFQAHQEDTERYVLTNLNIGAELLRDPSLGAQFRVHLVKMVILTEPEGAPNITANLTSSLLSVCGWSQTINPEDDTDPGHADLVLYITRFDLELPDGNRQVRGVTQLGGACSPTWSCLITEDTGFDLGVTIAHEIGHSFGLEHDGAPGSGCGPSGHVMASDGAAPRAGLAWSPCSRRQLLSLLSAGRARCVWDPPRPQPGSAGHPPDAQPGLYYSANEQCRVAFGPKAVACTFAREHLDMCQALSCHTDPLDQSSCSRLLVPLLDGTECGVEKWCSKGRCRSLVELTPIAAVHGRWSSWGPRSPCSRSCGGGVVTRRRQCNNPRPAFGGRACVGADLQAEMCNTQACEKTQLEFMSQQCARTDGQPLRSSPGGASFYHWGAAVPHSQGDALCRHMCRAIGESFIMKRGDSFLDGTRCMPSGPREDGTLSLCVSGSCRTFGCDGRMDSQQVWDRCQVCGGDNSTCSPRKGSFTAGRAREYVTFLTVTPNLTSVYIANHRPLFTHLAVRIGGRYVVAGKMSISPNTTYPSLLEDGRVEYRVALTEDRLPRLEEIRIWGPLQEDADIQVYRRYGEEYGNLTRPDITFTYFQPKPRQAWVWAAVRGPCSVSCGAGLRWVNYSCLDQARKELVETVQCQGSQQPPAWPEACVLEPCPPYWAVGDFGPCSASCGGGLRERPVRCVEAQGSLLKTLPPARCRAGAQQPAVALETCNPQPCPARWEVSEPSSCTSAGGAGLALENETCVPGADGLEAPVTEGPGSVDEKLPAPEPCVGMSCPPGWGHLDATSAGEKAPSPWGSIRTGAQAAHVWTPAAGSCSVSCGRGLMELRFLCMDSALRVPVQEELCGLASKPGSRREVCQAVPCPARWQYKLAACSVSCGRGVVRRILYCARAHGEDDGEEILLDTQCQGLPRPEPQEACSLEPCPPRWKVMSLGPCSASCGLGTARRSVACVQLDQGQDVEVDEAACAALVRPEASVPCLIADCTYRWHVGTWMECSVSCGDGIQRRRDTCLGPQAQAPVPADFCQHLPKPVTVRGCWAGPCVGQGTDYKDDDDK
B2: W688stop (C-terminal deletion variant of ADAMTS-13, FLAG appended) (protein)
chain: PSHFQQSCLQALEPQAVSSYLSPGAPLKGRPPSPGFQRQRQRQRRAAGGILHLELLVAVGPDVFQAHQEDTERYVLTNLNIGAELLRDPSLGAQFRVHLVKMVILTEPEGAPNITANLTSSLLSVCGWSQTINPEDDTDPGHADLVLYITRFDLELPDGNRQVRGVTQLGGACSPTWSCLITEDTGFDLGVTIAHEIGHSFGLEHDGAPGSGCGPSGHVMASDGAAPRAGLAWSPCSRRQLLSLLSAGRARCVWDPPRPQPGSAGHPPDAQPGLYYSANEQCRVAFGPKAVACTFAREHLDMCQALSCHTDPLDQSSCSRLLVPLLDGTECGVEKWCSKGRCRSLVELTPIAAVHGRWSSWGPRSPCSRSCGGGVVTRRRQCNNPRPAFGGRACVGADLQAEMCNTQACEKTQLEFMSQQCARTDGQPLRSSPGGASFYHWGAAVPHSQGDALCRHMCRAIGESFIMKRGDSFLDGTRCMPSGPREDGTLSLCVSGSCRTFGCDGRMDSQQVWDRCQVCGGDNSTCSPRKGSFTAGRAREYVTFLTVTPNLTSVYIANHRPLFTHLAVRIGGRYVVAGKMSISPNTTYPSLLEDGRVEYRVALTEDRLPRLEEIRIWGPLQEDADIQVYRRYGEEYGNLTRPDITFTYFQPKPRQAWVWDYKDDDDK
B3: Q449stop (C-terminal deletion variant of ADAMTS-13, FLAG appended) (protein)
chain: PSHFQQSCLQALEPQAVSSYLSPGAPLKGRPPSPGFQRQRQRQRRAAGGILHLELLVAVGPDVFQAHQEDTERYVLTNLNIGAELLRDPSLGAQFRVHLVKMVILTEPEGAPNITANLTSSLLSVCGWSQTINPEDDTDPGHADLVLYITRFDLELPDGNRQVRGVTQLGGACSPTWSCLITEDTGFDLGVTIAHEIGHSFGLEHDGAPGSGCGPSGHVMASDGAAPRAGLAWSPCSRRQLLSLLSAGRARCVWDPPRPQPGSAGHPPDAQPGLYYSANEQCRVAFGPKAVACTFAREHLDMCQALSCHTDPLDQSSCSRLLVPLLDGTECGVEKWCSKGRCRSLVELTPIAAVHGRWSSWGPRSPCSRSCGGGVVTRRRQCNNPRPAFGGRACVGADLQAEMCNTQACEKTQLEFMSQQDYKDDDDK
B4: Full 1427stop (FLAG tagged ADAMTS-13 wild type) (protein)
chain: PSHFQQSCLQALEPQAVSSYLSPGAPLKGRPPSPGFQRQRQRQRRAAGGILHLELLVAVGPDVFQAHQEDTERYVLTNLNIGAELLRDPSLGAQFRVHLVKMVILTEPEGAPNITANLTSSLLSVCGWSQTINPEDDTDPGHADLVLYITRFDLELPDGNRQVRGVTQLGGACSPTWSCLITEDTGFDLGVTIAHEIGHSFGLEHDGAPGSGCGPSGHVMASDGAAPRAGLAWSPCSRRQLLSLLSAGRARCVWDPPRPQPGSAGHPPDAQPGLYYSANEQCRVAFGPKAVACTFAREHLDMCQALSCHTDPLDQSSCSRLLVPLLDGTECGVEKWCSKGRCRSLVELTPIAAVHGRWSSWGPRSPCSRSCGGGVVTRRRQCNNPRPAFGGRACVGADLQAEMCNTQACEKTQLEFMSQQCARTDGQPLRSSPGGASFYHWGAAVPHSQGDALCRHMCRAIGESFIMKRGDSFLDGTRCMPSGPREDGTLSLCVSGSCRTFGCDGRMDSQQVWDRCQVCGGDNSTCSPRKGSFTAGRAREYVTFLTVTPNLTSVYIANHRPLFTHLAVRIGGRYVVAGKMSISPNTTYPSLLEDGRVEYRVALTEDRLPRLEEIRIWGPLQEDADIQVYRRYGEEYGNLTRPDITFTYFQPKPRQAWVWAAVRGPCSVSCGAGLRWVNYSCLDQARKELVETVQCQGSQQPPAWPEACVLEPCPPYWAVGDFGPCSASCGGGLRERPVRCVEAQGSLLKTLPPARCRAGAQQPAVALETCNPQPCPARWEVSEPSSCTSAGGAGLALENETCVPGADGLEAPVTEGPGSVDEKLPAPEPCVGMSCPPGWGHLDATSAGEKAPSPWGSIRTGAQAAHVWTPAAGSCSVSCGRGLMELRFLCMDSALRVPVQEELCGLASKPGSRREVCQAVPCPARWQYKLAACSVSCGRGVVRRILYCARAHGEDDGEEILLDTQCQGLPRPEPQEACSLEPCPPRWKVMSLGPCSASCGLGTARRSVACVQLDQGQDVEVDEAACAALVRPEASVPCLIADCTYRWHVGTWMECSVSCGDGIQRRRDTCLGPQAQAPVPADFCQHLPKPVTVRGCWAGPCVGQGTPSLVPHEEAAAPGRTTATPAGASLEWSQARGLLFSPAPQPRRLLPGPQENSVQSSACGRQHLEPTGTIDMRGPGQADCAVAIGRPLGEVVTLRVLESSLNCSAGDMLLLWGRLTWRKMCRKLLDMTFSSKTNTLVVRQRCGRPGGGVLLRYGSQLAPETFYRECDMQLFGPWGEIVSPSLSPATSNAGGCRLFINVAPHARIAIHALATNMGAGTEGANASYILIRDTHSLRTTAFHGQQVLYWESESSQAEMEFSEGFLKAQASLRGQYWTLQSWVPEMQDPQSWKGKEGTDYKDDDDK
B5: W1016stop (C-terminal deletion variant of ADAMTS-13, FLAG appended) (protein)
chain: PSHFQQSCLQALEPQAVSSYLSPGAPLKGRPPSPGFQRQRQRQRRAAGGILHLELLVAVGPDVFQAHQEDTERYVLTNLNIGAELLRDPSLGAQFRVHLVKMVILTEPEGAPNITANLTSSLLSVCGWSQTINPEDDTDPGHADLVLYITRFDLELPDGNRQVRGVTQLGGACSPTWSCLITEDTGFDLGVTIAHEIGHSFGLEHDGAPGSGCGPSGHVMASDGAAPRAGLAWSPCSRRQLLSLLSAGRARCVWDPPRPQPGSAGHPPDAQPGLYYSANEQCRVAFGPKAVACTFAREHLDMCQALSCHTDPLDQSSCSRLLVPLLDGTECGVEKWCSKGRCRSLVELTPIAAVHGRWSSWGPRSPCSRSCGGGVVTRRRQCNNPRPAFGGRACVGADLQAEMCNTQACEKTQLEFMSQQCARTDGQPLRSSPGGASFYHWGAAVPHSQGDALCRHMCRAIGESFIMKRGDSFLDGTRCMPSGPREDGTLSLCVSGSCRTFGCDGRMDSQQVWDRCQVCGGDNSTCSPRKGSFTAGRAREYVTFLTVTPNLTSVYIANHRPLFTHLAVRIGGRYVVAGKMSISPNTTYPSLLEDGRVEYRVALTEDRLPRLEEIRIWGPLQEDADIQVYRRYGEEYGNLTRPDITFTYFQPKPRQAWVWAAVRGPCSVSCGAGLRWVNYSCLDQARKELVETVQCQGSQQPPAWPEACVLEPCPPYWAVGDFGPCSASCGGGLRERPVRCVEAQGSLLKTLPPARCRAGAQQPAVALETCNPQPCPARWEVSEPSSCTSAGGAGLALENETCVPGADGLEAPVTEGPGSVDEKLPAPEPCVGMSCPPGWGHLDATSAGEKAPSPWGSIRTGAQAAHVWTPAAGSCSVSCGRGLMELRFLCMDSALRVPVQEELCGLASKPGSRREVCQAVPCPARWQYKLAACSVSCGRGVVRRILYCARAHGEDDGEEILLDTQCQGLPRPEPQEACSLEPCPPRWDYKDDDDK
B6: recombinant ADAMTS-13 (von Willebrand factor specific cleaving enzyme), expressed in human embryo kidney cell line 293 (protein)
chain: AAGGILHLELLVAVGPDVFQAHQEDTERYVLTNLNIGAELLRDPSLGAQFRVHLVKMVILTEPEGAPNITANLTSSLLSVCGWSQTINPEDDTDPGHADLVLYITRFDLELPDGNRQVRGVTQLGGACSPTWSCLITEDTGFDLGVTIAHEIGHSFGLEHDGAPGSGCGPSGHVMASDGAAPRAGLAWSPCSRRQLLSLLSAGRARCVWDPPRPQPGSAGHPPDAQPGLYYSANEQCRVAFGPKAVACTFAREHLDMCQALSCHTDPLDQSSCSRLLVPLLDGTECGVEKWCSKGRCRSLVELTPIAAVHGRWSSWGPRSPCSRSCGGGVVTRRRQCNNPRPAFGGRACVGADLQAEMCNTQACEKTQLEFMSQQCARTDGQPLRSSPGGASFYHWGAAVPHSQGDALCRHMCRAIGESFIMKRGDSFLDGTRCMPSGPREDGTLSLCVSGSCRTFGCDGRMDSQQVWDRCQVCGGDNSTCSPRKGSFTAGRAREYVTFLTVTPNLTSVYIANHRPLFTHLAVRIGGRYVVAGKMSISPNTTYPSLLEDGRVEYRVALTEDRLPRLEEIRIWGPLQEDADIQVYRRYGEEYGNLTRPDITFTYFQPKPRQAWVWAAVRGPCSVSCGAGLRWVNYSCLDQARKELVETVQCQGSQQPPAWPEACVLEPCPPYWAVGDFGPCSASCGGGLRERPVRCVEAQGSLLKTLPPARCRAGAQQPAVALETCNPQPCPARWEVSEPSSCTSAGGAGLALENETCVPGADGLEAPVTEGPGSVDEKLPAPEPCVGMSCPPGWGHLDATSAGEKAPSPWGSIRTGAQAAHVWTPAAGSCSVSCGRGLMELRFLCMDSALRVPVQEELCGLASKPGSRREVCQAVPCPARWQYKLAACSVSCGRGVVRRILYCARAHGEDDGEEILLDTQCQGLPRPEPQEACSLEPCPPRWKVMSLGPCSASCGLGTARRSVACVQLDQGQDVEVDEAACAALVRPEASVPCLIADCTYRWHVGTWMECSVSCGDGIQRRRDTCLGPQAQAPVPADFCQHLPKPVTVRGCWAGPCVGQGTPSLVPHEEAAAPGRTTATPAGASLEWSQARGLLFSPAPQPRRLLPGPQENSVQSSACGRQHLEPTGTIDMRGPGQADCAVAIGRPLGEVVTLRVLESSLNCSAGDMLLLWGRLTWRKMCRKLLDMTFSSKTNTLVVRQRCGRPGGGVLLRYGSQLAPETFYRECDMQLFGPWGEIVSPSLSPATSNAGGCRLFINVAPHARIAIHALATNMGAGTEGANASYILIRDTHSLRTTAFHGQQVLYWESESSQAEMEFSEGFLKAQASLRGQYWTLQSWVPEMQDPQSWKGKEGT

These proteins were tested against von Willebrand factor (vWF), prepared from plasma cryo fraction, P04275.

Protein | vWF cleaving activity (SDS-PAGE) | vWF cleaving activity
B1 | vWF cleaving activity was clearly recognized from the full-length molecule to W688stop molecule | 
B2 | vWF cleaving activity was clearly recognized from the full-length molecule to W688stop molecule | 
B3 |  | secretion into culture supernatant was observed but the enzyme activity was weak or not observed in a molecule consisting of amino acids up to the vicinity of the 449th
B4 | vWF cleaving activity was clearly recognized from the full-length molecule to W688stop molecule | 
B5 | vWF cleaving activity was clearly recognized from the full-length molecule to W688stop molecule | 
B6 |  | It was also confirmed that the vWF cleaving activity exists in the obtained purified fraction
